Legend:
[1] = Membrane partitioning of toxins into lipid vesicles measured using Trp fluorescence; format: physicochemical
Source text: Motivated by the amphipathic character evident in the structure of DkTx, together with the placement of the toxin at the protein-lipid interface when bound to TRPV1, we investigated the interaction of DkTx and each of its two lobes with lipid membranes. For these experiments, we took advantage of the presence of a single conserved and solvent accessible Trp residue in loop 2 of both K1 and K2 (Figure 1C,D; W11 and W53), and used Trp fluorescence to monitor the partitioning of the toxin from the aqueous solution into the membrane environment ([Gupta et al., 2015]; [Ladokhin et al., 2000]; [Milescu et al., 2007]). When aqueous solutions of DkTx were excited at a wavelength of 280 nm, emission spectra with maxima at 353 nm were obtained (Figure 5A, left), as expected for Trp residues residing in such an environment. […] To quantify the extent of partitioning as a function of lipid concentration, we measured the relative fluorescence intensity in a blue-shifted region of the spectra (e.g. 320 nm) as a function of lipid concentration, and fit a partition function to the data to obtain a mole-fraction partition coefficient (Kx) of (2.3 ± 0.7) × 10^6, indicating an energetically favorable interaction of DkTx with lipid membranes (Figure 5A, right). This strong interaction of DkTx with membranes would facilitate binding of the toxin to the channel by increasing the local concentration of the toxin near the channel and by a reduction in the dimensionality of diffusion within the membrane ([Axelrod and Wang, 1994]).
Figure 5. Interaction of DkTx and toxin constructs with lipid membranes measured using Trp fluorescence. […] (A–E, right panel) Relative fluorescence intensity at 320 nm (F/F0) as a function of available lipid concentrations (60% of total lipid concentration). […] Interaction of K1-K2 chimeras with lipid membranes measured using Trp fluorescence. […] (A–D, right panel) Relative fluorescence intensity at 320 nm (F/F0) as a function of available lipid concentrations (60% of total lipid concentration). […]

rTRPV1 = biological target: T1, rTRPV1 (Rattus norvegicus, UniProt O35433); assay: Whole-cell patch clamp recordings of TRPV1 activation by toxins in transiently transfected HEK293 cells; format: cell-based
T1 construct: preserved in the full-length construct used for our functional studies; expressed in transfected cells; host or cells: HEK293
T1 sequence (O35433 whole entry): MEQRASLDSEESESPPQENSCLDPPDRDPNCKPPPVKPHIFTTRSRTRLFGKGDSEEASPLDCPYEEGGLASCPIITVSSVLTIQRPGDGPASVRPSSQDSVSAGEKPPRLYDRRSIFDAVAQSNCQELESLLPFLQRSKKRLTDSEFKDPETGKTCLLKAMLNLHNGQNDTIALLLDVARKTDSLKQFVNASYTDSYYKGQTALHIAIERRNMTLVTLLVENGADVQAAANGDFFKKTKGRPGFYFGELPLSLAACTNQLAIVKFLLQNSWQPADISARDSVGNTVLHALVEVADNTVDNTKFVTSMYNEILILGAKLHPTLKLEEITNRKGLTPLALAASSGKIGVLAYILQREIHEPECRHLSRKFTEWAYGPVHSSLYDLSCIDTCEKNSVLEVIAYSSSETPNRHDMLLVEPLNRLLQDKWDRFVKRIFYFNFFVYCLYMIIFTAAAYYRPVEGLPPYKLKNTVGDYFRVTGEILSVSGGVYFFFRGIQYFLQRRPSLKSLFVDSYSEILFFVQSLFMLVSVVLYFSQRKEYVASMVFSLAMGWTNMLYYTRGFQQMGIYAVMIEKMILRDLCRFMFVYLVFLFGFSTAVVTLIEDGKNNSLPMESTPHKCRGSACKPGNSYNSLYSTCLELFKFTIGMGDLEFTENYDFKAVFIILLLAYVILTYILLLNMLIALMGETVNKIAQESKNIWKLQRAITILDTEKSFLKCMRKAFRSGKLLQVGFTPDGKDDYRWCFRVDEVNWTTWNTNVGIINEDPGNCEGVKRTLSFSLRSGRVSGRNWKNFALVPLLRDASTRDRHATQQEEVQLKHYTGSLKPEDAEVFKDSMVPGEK
Source text: Figure 3. Validation of the proposed structural model of the TRPV1-DkTx complex. Close-up of K1 (A) and K2 (B) in the top-ranking ROSETTA model of DkTx bound to TRPV1. Side chains of TRPV1 residues where mutation disrupts DkTx-induced channel activation (I599, F649, A657 and F659) ([Bohlen et al., 2010]) are highlighted in purple. (C) Representative time courses of TRPV1 activation at +120 mV by either DkTx (left panel), K1K1 (middle panel) or K2K2 (right panel) measured from a train of voltage-ramps in the whole-cell configuration with the TRPV1 expressed in HEK cells. […] Fractional dissociation 1 min after toxin removal was quantified across cells as the current amplitude 1 min after toxin removal divided by the steady-state current amplitude in the presence of the toxin. […] Activation of the full-length TRPV1 channel by the toxin at different concentrations was measured in oocytes at a holding voltage of −60 mV. […]
Figure 7. […] Currents were measured every 3 s by applying voltage-ramps of 1 s duration from −120 to +140 mV starting at a holding potential of −90 mV. Currents were recorded under constant perfusion with control solution or with the test solutions containing either NMDG^+ instead of Na^+ as permeant ion (gray), or the K2 toxins together with 130 mM NaCl (black and blue), as indicated by the continuous horizontal lines. […]

B1: double-knot toxin (protein)
chain: DCAKEGEVCSWGKKCCDLDNFYCPMEFIPHCKKYKPYVPVTTNCAKEGEVCGWGSKCCHGLDCPLAFIPYCEKYR
notes: produced recombinantly
[1]; Trp fluorescence, LUVs 1:1 POPC:POPG, 10 mM HEPES, 1 mM EDTA, pH 7.0, fit of partition function, ± SEM, n = 3 or 4, SEM
  F/F0^max (relative fluorescence intensity at 320 nm when partitioning is saturated): 2.65 ± 0.08
[1]; Trp fluorescence, excitation 280 nm, F/F0 at 320 nm, LUVs 1:1 POPC:POPG extruded through 100 nm, toxin 2 or 5 µM in 10 mM HEPES, 1 mM EDTA, pH 7.0, available lipid 60% of total, fit of partition function, ± SEM, n = 3 or 4, SEM
  mole-fraction partition coefficient (Kx): (2.3 ± 0.7) × 10^6
[1]; from measured Kx, LUVs 1:1 POPC:POPG
  measured free energy of membrane partitioning (ΔG° = −RT lnKx): -8.5 kcal/mol
rTRPV1; HEK cells
  dissociation from TRPV1 after toxin removal (in words): slow dissociation
rTRPV1; TRPV1 in HEK cells, +120 mV from voltage ramps, 1 µM toxin, mean ± sem, n = 8 (DkTx), 5 (K1K1), 6 (K2K2), SEM
  Fractional dissociation 1 min after toxin removal (current amplitude 1 min after toxin removal divided by steady-state current amplitude in presence of toxin): 0.8 ± 0.05
